Results: paper PMC2481281
Each block holds one substance with its values, some of them ahead of it.

Key:
[1] = biological target: α-wt C9 (CXCL12α with C-terminal bovine rhodopsin C9 tag) (mouse) (UniProt P40224); experiment: SDS-PAGE and immunoblot; lysates of SFV-infected BHK cells separated by SDS-PAGE and probed with the K15C mAb; dimeric forms seen
[2] = biological target: CXCR7 on CXCR7-transduced A0.01 cells (UniProt P25106); experiment: flow cytometry on cells; competition: 1 nM α-biot on CXCR7-transduced A0.01 cells with increasing concentrations of untagged chemokine, washed, labelled with 1 µg/ml streptavidin-PE; normalised to binding without competitor; one-site non-linear regression
Sequence of UniProt P25106 (P25106 whole entry): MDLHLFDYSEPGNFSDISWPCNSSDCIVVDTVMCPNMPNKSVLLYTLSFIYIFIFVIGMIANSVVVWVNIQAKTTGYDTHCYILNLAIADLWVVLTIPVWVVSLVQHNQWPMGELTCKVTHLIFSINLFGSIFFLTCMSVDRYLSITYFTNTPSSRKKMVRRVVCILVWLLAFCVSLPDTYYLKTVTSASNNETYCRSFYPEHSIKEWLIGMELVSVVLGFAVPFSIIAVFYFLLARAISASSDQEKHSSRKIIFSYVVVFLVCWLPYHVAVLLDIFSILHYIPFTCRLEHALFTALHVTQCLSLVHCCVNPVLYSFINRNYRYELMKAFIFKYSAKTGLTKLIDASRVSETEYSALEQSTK

[3] = biological target: CXCL12γ protein, chemically synthesized (γ-wt) (mouse); experiment: SDS-PAGE and immunoblot; chemically synthesized chemokines separated by SDS-PAGE and probed with the K15C mAb; dimeric forms seen
[4] = biological target: γ-wt C9 (CXCL12γ with C-terminal bovine rhodopsin C9 tag) (mouse); experiment: SDS-PAGE and immunoblot; lysates of SFV-infected BHK cells separated by SDS-PAGE and probed with the K15C mAb; dimeric forms seen

stoichiometry N [1]: 2
Substance: α-wt C9 (CXCL12α with C-terminal bovine rhodopsin C9 tag) (from UniProt P40224-2 22-93) (ligand)

IC50 [2]: 10.4 nM | stoichiometry N [3]: 2
Substance: CXCL12γ protein, chemically synthesized (γ-wt) (ligand)

stoichiometry N [4]: 2
Substance: γ-wt C9 (CXCL12γ with C-terminal bovine rhodopsin C9 tag) (ligand)
